Assay results reported in paper PMC11339404.

Key:
Assay in all cases: FRET
[1] = biological target: RPA (human, UniProt P27694;P15927;P35244 1-616;1-270;1-121)
[2] = biological target: RAD51 (human, UniProt Q06609 1-339)
[3] = biological target: RAD51;SWSAP1-SWS1 (human;human, UniProt Q06609;Q6NVH7;Q19AV6 1-339;1-250;1-140, |)
[4] = biological target: T1, SWSAP1-SWS1 (human, UniProt Q6NVH7;Q19AV6 1-250;1-140)
T1 sequence 1: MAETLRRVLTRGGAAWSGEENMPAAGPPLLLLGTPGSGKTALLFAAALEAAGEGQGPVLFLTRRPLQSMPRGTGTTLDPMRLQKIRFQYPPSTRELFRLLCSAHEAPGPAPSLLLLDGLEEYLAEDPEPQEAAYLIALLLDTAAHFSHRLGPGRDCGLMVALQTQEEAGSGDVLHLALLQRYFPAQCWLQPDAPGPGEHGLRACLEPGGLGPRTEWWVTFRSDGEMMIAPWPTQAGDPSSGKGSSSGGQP
T1 sequence 2: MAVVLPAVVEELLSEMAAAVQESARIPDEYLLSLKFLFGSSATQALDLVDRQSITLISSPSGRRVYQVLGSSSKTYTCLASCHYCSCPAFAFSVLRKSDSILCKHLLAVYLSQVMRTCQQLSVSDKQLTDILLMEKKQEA

RAD51, sequence (Q06609 whole entry): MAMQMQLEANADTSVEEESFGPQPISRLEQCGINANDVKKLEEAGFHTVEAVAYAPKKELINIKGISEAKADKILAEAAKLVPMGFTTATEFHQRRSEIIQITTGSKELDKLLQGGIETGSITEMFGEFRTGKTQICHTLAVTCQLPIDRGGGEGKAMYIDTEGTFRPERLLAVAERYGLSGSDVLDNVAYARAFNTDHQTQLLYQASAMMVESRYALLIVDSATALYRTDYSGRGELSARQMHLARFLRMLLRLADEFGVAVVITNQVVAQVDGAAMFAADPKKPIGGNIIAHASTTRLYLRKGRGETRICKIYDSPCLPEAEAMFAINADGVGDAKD
RAD51;SWSAP1-SWS1, sequence (Q06609 whole entry, one chain of several): as the sequence (Q06609 whole entry) above
RPA, sequence (P27694 whole entry, chain 1 of 3): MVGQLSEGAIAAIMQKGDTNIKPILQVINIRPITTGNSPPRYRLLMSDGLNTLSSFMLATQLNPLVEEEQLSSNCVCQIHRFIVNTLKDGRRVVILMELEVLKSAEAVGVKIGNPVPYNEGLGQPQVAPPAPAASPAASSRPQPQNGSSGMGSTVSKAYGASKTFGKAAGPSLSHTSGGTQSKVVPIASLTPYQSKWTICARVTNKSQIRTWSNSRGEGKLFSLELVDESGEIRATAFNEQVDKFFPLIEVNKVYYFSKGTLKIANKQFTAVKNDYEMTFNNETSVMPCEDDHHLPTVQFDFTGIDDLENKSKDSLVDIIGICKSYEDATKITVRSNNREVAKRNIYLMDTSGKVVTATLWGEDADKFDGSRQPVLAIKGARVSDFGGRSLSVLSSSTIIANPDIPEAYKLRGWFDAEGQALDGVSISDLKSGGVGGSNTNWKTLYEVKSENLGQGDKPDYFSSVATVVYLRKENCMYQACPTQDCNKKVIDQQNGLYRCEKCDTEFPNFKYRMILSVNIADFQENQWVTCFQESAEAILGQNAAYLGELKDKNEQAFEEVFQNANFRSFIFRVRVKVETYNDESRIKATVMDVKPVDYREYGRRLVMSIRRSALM
RPA, sequence (P15927 whole entry, chain 2 of 3): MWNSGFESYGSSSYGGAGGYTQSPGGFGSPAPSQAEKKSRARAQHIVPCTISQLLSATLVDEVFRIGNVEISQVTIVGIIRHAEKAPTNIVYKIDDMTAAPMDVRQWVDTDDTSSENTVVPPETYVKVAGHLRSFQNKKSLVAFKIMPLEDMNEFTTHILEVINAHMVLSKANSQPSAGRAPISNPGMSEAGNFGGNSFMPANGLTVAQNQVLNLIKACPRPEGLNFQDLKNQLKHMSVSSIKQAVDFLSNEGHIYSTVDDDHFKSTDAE
RPA, sequence (P35244 whole entry, chain 3 of 3): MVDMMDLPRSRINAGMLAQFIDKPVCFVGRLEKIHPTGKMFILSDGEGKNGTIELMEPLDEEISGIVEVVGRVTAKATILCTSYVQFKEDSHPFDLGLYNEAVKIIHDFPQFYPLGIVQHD

B1: Cy3-dT60-Cy5 (ssDNA)
DNA: TTTTTTTTTTTTTTTTTTTTTTTTTTTTTTTTTTTTTTTTTTTTTTTTTTTTTTTTTTTT
- binding result [1]: binds
- binding result [2]: binds
- binding result [3]: binds
- binding result [4]: no binding
